The values that follow come from paper PMC7772510.

The target of assay [1] is complement fragment iC3b (UniProt P01024). Put plainly: SPR.
Assay [2] has the same target. Description: ELISA.

B1: GST-αX I-domain (domain or fragment)
chain: RQEQDIVFLIDGSGSISSRNFATMMNFVRAVISQFQRPSTQFSLMQFSNKFQTHFTFEEFRRSSNPLSLLASVHQLQGFTYTATAIQNVVHRLFHASYGARRDAAKILIVITDGKKEGDSLDYKDVIPMADAAGIIRYAIGVGLAFQNRNSWKELNDIASKPSQEHIFKVEDFDALKDIQNQLKEKIFAIEG
Take B1: the Kd came to 1060 nM in assay [1] and 1000 nM in assay [2].

B2: GST-αX I-domain D249M (domain or fragment)
chain: RQEQDIVFLIDGSGSISSRNFATMMNFVRAVISQFQRPSTQFSLMQFSNKFQTHFTFEEFRRSSNPLSLLASVHQLQGFTYTATAIQNVVHRLFHASYGARRMAAKILIVITDGKKEGDSLDYKDVIPMADAAGIIRYAIGVGLAFQNRNSWKELNDIASKPSQEHIFKVEDFDALKDIQNQLKEKIFAIEG
For the molecule B2, in assay [1], the Kd came to 490 nM. In other words, the sub-micromolar range.

B3: GST-αX I-domain K242A/K243A (domain or fragment)
chain: RQEQDIVFLIDGSGSISSRNFATMMNFVRAVISQFQRPSTQFSLMQFSNKFQTHFTFEEFRRSSNPLSLLASVHQLQGFTYTATAIQNVVHRLFHASYGARRDAAKILIVITDGAAEGDSLDYKDVIPMADAAGIIRYAIGVGLAFQNRNSWKELNDIASKPSQEHIFKVEDFDALKDIQNQLKEKIFAIEG
The molecule B3 displayed a Kd in assay [1] of 2890 nM.

B4: GST-αX I-domain K243S/E244H (domain or fragment)
chain: RQEQDIVFLIDGSGSISSRNFATMMNFVRAVISQFQRPSTQFSLMQFSNKFQTHFTFEEFRRSSNPLSLLASVHQLQGFTYTATAIQNVVHRLFHASYGARRDAAKILIVITDGKSHGDSLDYKDVIPMADAAGIIRYAIGVGLAFQNRNSWKELNDIASKPSQEHIFKVEDFDALKDIQNQLKEKIFAIEG
B4 showed a Kd in assay [1] of 560 nM.
